In the supplement of paper PMC5998384:

Legend:
HeLa Kyoto [1] = test: thermal stability score vs G1/S (z-score of summed log2 fold changes over temperatures); higher = more thermally stable than in G1/S
HeLa Kyoto [2] = test: solubility change mitosis vs G1/S (difference of NP-40 vs SDS log2 ratios) (log2 ratio difference); higher = more soluble in mitosis
HeLa Kyoto [3] = test: melting temperature (median over replicates), in situ; higher = more thermally stable
HeLa Kyoto [4] = test: solubility in G1/S (NP-40 vs SDS abundance) (log2 ratio); higher = more soluble; details: cell cycle stage: G1/S
[5] = cell cycle stage: early G1 (4.5 h after nocodazole release)
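For melting temperature (median over replicates), in situ in this document: HeLa Kyoto cells synchronized by double thymidine or nocodazole block, proteins quantified by TMT10plex mass spectrometry, three independent biological replicates.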
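For solubility change mitosis vs G1/S (difference of NP-40 vs SDS log2 ratios) in this document: synchronized HeLa Kyoto cells (double thymidine block for G1/S, nocodazole release for mitosis), protein amounts in NP-40 versus SDS lysates quantified by mass spectrometry, three biological replicates.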
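For solubility in G1/S (NP-40 vs SDS abundance) in this document: HeLa Kyoto cells arrested at G1/S by double thymidine block, proteins quantified by TMT10plex mass spectrometry in mild NP-40 versus SDS extracts, three biological replicates.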
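For thermal stability score vs G1/S (z-score of summed log2 fold changes over temperatures) in this document: synchronized HeLa Kyoto cells, proteins quantified by TMT10plex mass spectrometry, three biological replicates, mitosis taken 0.5 h after nocodazole release, G1/S directly after double thymidine block.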

| Sequence | thermal stability score (HeLa Kyoto [1]; [5]) | thermal stability score (HeLa Kyoto [1]; cell cycle stage: mitosis) | solubility change mitosis (log2) (HeLa Kyoto [2]) | melting temperature (HeLa Kyoto [3]; cell cycle stage: G1/S) | melting temperature (HeLa Kyoto [3]; cell cycle stage: mitosis) | solubility in G1/S (log2) (HeLa Kyoto [4]) |
| --- | --- | --- | --- | --- | --- | --- |
| MAPMGIRLSPLGVAVFCLLGLGVLYHLYSGFLAGRFSLFGLGGEPGGGAAGPAAAADGGTVDLREMLAVSVLAAVRGGDEVRRVRESNVLHEKSKGKTREGAEDKMTSGDVLSNRKMFYLLKTAFPSVQINTEEHVDAADQEVILWDHKIPEDILKEVTTPKEVPAESVTVWIDPLDATQEYTEDLRKYVTTMVCVAVNGKPMLGVIHKPFSEYTAWAMVDGGSNVKARSSYNEKTPRIVVSRSHSGMVKQVALQTFGNQTTIIPAGGAGYKVLALLDVPDKSQEKADLYIHVTYIKKWDICAGNAILKALGGHMTTLSGEEISYTGSDGIEGGLLASIRMNHQALVRKLPDLEKTGHK [IMPAD1] | 0.124 | -1.11 | -0.132 | 59.1 °C | 58.9 °C | 0.145 |
| MAPPGSSTVFLLALTIIASTWALTPTHYLTKHDVERLKASLDRPFTNLESAFYSIVGLSSLGAQVPDAKKACTYIRSNLDPSNVDSLFYAAQASQALSGCEISISNETKDLLLAAVSEDSSVTQIYHAVAALSGFGLPLASQEALSALTARLSKEETVLATVQALQTASHLSQQADLRSIVEEIEDLVARLDELGGVYLQFEEGLETTALFVAATYKLMDHVGTEPSIKEDQVIQLMNAIFSKKNFESLSEAFSVASAAAVLSHNRYHVPVVVVPEGSASDTHEQAILRLQVTNVLSQPLTQATVKLEHAKSVASRATVLQKTSFTPVGDVFELNFMNVKFSSGYYDFLVEVEGDNRYIANTVELRVKISTEVGITNVDLSTVDKDQSIAPKTTRVTYPAKAKGTFIADSHQNFALFFQLVDVNTGAELTPHQTFVRLHNQKTGQEVVFVAEPDNKNVYKFELDTSERKIEFDSASGTYTLYLIIGDATLKNPILWNVADVVIKFPEEEAPSTVLSQNLFTPKQEIQHLFREPEKRPPTVVSNTFTALILSPLLLLFALWIRIGANVSNFTFAPSTIIFHLGHAAMLGLMYVYWTQLNMFQTLKYLAILGSVTFLAGNRMLAQQAVKRTAH [RPN2] | 1.07 | 2.44 | -0.162 | 54 °C | 53.7 °C | 0.0246 |
| MAPQSLPSSRMAPLGMLLGLLMAACFTFCLSHQNLKEFALTNPEKSSTKETERKETKAEEELDAEVLEVFHPTHEWQALQPGQAVPAGSHVRLNLQTGEREAKLQYEDKFRNNLKGKRLDINTNTYTSQDLKSALAKFKEGAEMESSKEDKARQAEVKRLFRPIEELKKDFDELNVVIETDMQIMVRLINKFNSSSSSLEEKIAALFDLEYYVHQMDNAQDLLSFGGLQVVINGLNSTEPLVKEYAAFVLGAAFSSNPKVQVEAIEGGALQKLLVILATEQPLTAKKKVLFALCSLLRHFPYAQRQFLKLGGLQVLRTLVQEKGTEVLAVRVVTLLYDLVTEKMFAEEEAELTQEMSPEKLQQYRQVHLLPGLWEQGWCEITAHLLALPEHDAREKVLQTLGVLLTTCRDRYRQDPQLGRTLASLQAEYQVLASLELQDGEDEGYFQELLGSVNSLLKELR [SIL1] | -0.386 | 0.264 | -0.0794 | 53.5 °C | 53.4 °C | 0.7 |
| MAPQVWRRRTLERCLTEVGKATGRPECFLTIQEGLASKFTSLTKVLYDFNKILENGRIHGSPLQKLVIENFDDEQIWQQLELQNEPILQYFQNAVSETINDEDISLLPESEEQEREEDGSEIEADDKEDLEDLEEEEVSDMGNDDPEMGERAENSSKSDLRKSPVFSDEDSDLDFDISKLEQQSKVQNKGQGKPREKSIVDDKFFKLSEMEAYLENIEKEEERKDDNDEEEEDIDFFEDIDSDEDEGGLFGSKKLKSGKSSRNLKYKDFFDPVESDEDITNVHDDELDSNKEDDEIAEEEAEELSISETDEDDDLQENEDNKQHKESLKRVTFALPDDAETEDTGVLNVKKNSDEVKSSFEKRQEKMNEKIASLEKELLEKKPWQLQGEVTAQKRPENSLLEETLHFDHAVRMAPVITEETTLQLEDIIKQRIRDQAWDDVVRKEKPKEDAYEYKKRLTLDHEKSKLSLAEIYEQEYIKLNQQKTAEEENPEHVEIQKMMDSLFLKLDALSNFHFIPKPPVPEIKVVSNLPAITMEEVAPVSVSDAALLAPEEIKEKNKAGDIKTAAEKTATDKKRERRKKKYQKRMKIKEKEKRRKLLEKSSVDQAGKYSKTVASEKLKQLTKTGKASFIKDEGKDKALKSSQAFFSKLQDQVKMQINDAKKTEKKKKKRQDISVHKLKL [MPHOSPH10] | 3.5 | 1.06 | 1.06 | 52.4 °C | 52.4 °C | -2.07 |
| MAPRLCSISVTARRLLGGPGPRAGDVASAAAARFYSKDNEGSWFRSLFVHKVDPRKDAHSTLLSKKETSNLYKIQFHNVKPEYLDAYNSLTEAVLPKLHLDEDYPCSLVGNWNTWYGEQDQAVHLWRFSGGYPALMDCMNKLKNNKEYLEFRRERSQMLLSRRNQLLLEFSFWNEPQPRMGPNIYELRTYKLKPGTMIEWGNNWARAIKYRQENQEAVGGFFSQIGELYVVHHLWAYKDLQSREETRNAAWRKRGWDENVYYTVPLVRHMESRIMIPLKISPLQ [NIPSNAP1] | -0.403 | -2.28 | -0.0766 | 53.9 °C | 54.3 °C | 0.0548 |
| MAPSSPRPALPALLVLLGALFPGPGNAQTSVSPSKVILPRGGSVLVTCSTSCDQPKLLGIETPLPKKELLLPGNNRKVYELSNVQEDSQPMCYSNCPDGQSTAKTFLTVYWTPERVELAPLPSWQPVGKNLTLRCQVEGGAPRANLTVVLLRGEKELKREPAVGEPAEVTTTVLVRRDHHGANFSCRTELDLRPQGLELFENTSAPYQLQTFVLPATPPQLVSPRVLEVDTQGTVVCSLDGLFPVSEAQVHLALGDQRLNPTVTYGNDSFSAKASVSVTAEDEGTQRLTCAVILGNQSQETLQTVTIYSFPAPNVILTKPEVSEGTEVTVKCEAHPRAKVTLNGVPAQPLGPRAQLLLKATPEDNGRSFSCSATLEVAGQLIHKNQTRELRVLYGPRLDERDCPGNWTWPENSQQTPMCQAWGNPLPELKCLKDGTFPLPIGESVTVTRDLEGTYLCRARSTQGEVTRKVTVNVLSPRYEIVIITVVAAAVIMGTAGLSTYLYNRQRKIKKYRLQQAQKGTPMKPNTQATPP [ICAM1] | -2.15 | -2.19 | 0.0971 | 56.7 °C | 58.8 °C | 0.303 |
| MAPVGGGGRPVGGPARGRLLLAAPVLLVLLWALGARGQGSPQQGTIVGMRLASCNKSCGTNPDGIIFVSEGSTVNLRLYGYSLGNISSNLISFTEVDDAETLHKSTSCLELTKDLVVQQLVNVSRGNTSGVLVVLTKFLRRSESMKLYALCTRAQPDGPWLKWTDKDSLLFMVEEPGRFLPLWLHILLITVLLVLSGIFSGLNLGLMALDPMELRIVQNCGTEKERRYARKIEPIRRKGNYLLCSLLLGNVLVNTSLTILLDNLIGSGLMAVASSTIGIVIFGEILPQALCSRHGLAVGANTILLTKFFMLLTFPLSFPISKLLDFFLGQEIRTVYNREKLMEMLKVTEPYNDLVKEELNMIQGALELRTKTVEDIMTQLQDCFMIRSDAILDFNTMSEIMESGYTRIPVFEDEQSNIVDILYVKDLAFVDPDDCTPLKTITRFYNHPVHFVFHDTKLDAMLEEFKKGKSHLAIVQKVNNEGEGDPFYEVLGLVTLEDVIEEIIKSEILDESDMYTDNRSRKRVSEKNKRDFSAFKDADNELKVKISPQLLLAAHRFLATEVSQFSPSLISEKILLRLLKYPDVIQELKFDEHNKYYARHYLYTRNKPADYFILILQGKVEVEAGKENMKFETGAFSYYGTMALTSVPSDRSPAHPTPLSRSASLSYPDRTDVSTAATLAGSSNQFGSSVLGQYISDFSVRALVDLQYIKITRQQYQNGLLASRMENSPQFPIDGCTTHMENLAEKSELPVVDETTTLLNERNSLLHKASHENAI [CNNM4] | -0.56 | -0.485 | -0.0459 | 51.7 °C | 52.1 °C | -0.12 |
| MAQAGVVGEVTQVLCAAGGALELPELRRRLRMGLSADALERLLRQRGRFVVAVRAGGAAAAPERVVLAASPLRLCRAHQGSKPGCVGLCAQLHLCRFMVYGACKFLRAGKNCRNSHSLTTEHNLSVLRTHGVDHLSYNELCQLLFQNDPWLLPEICQHYNKGDGPHGSCAFQKQCIKLHICQYFLQGECKFGTSCKRSHDFSNSENLEKLEKLGMSSDLVSRLPTIYRNAHDIKNKSSAPSRVPPLFVPQGTSERKDSSGSVSPNTLSQEEGDQICLYHIRKSCSFQDKCHRVHFHLPYRWQFLDRGKWEDLDNMELIEEAYCNPKIERILCSESASTFHSHCLNFNAMTYGATQARRLSTASSVTKPPHFILTTDWIWYWSDEFGSWQEYGRQGTVHPVTTVSSSDVEKAYLAYCTPGSDGQAATLKFQAGKHNYELDFKAFVQKNLVYGTTKKVCRRPKYVSPQDVTTMQTCNTKFPGPKSIPDYWDSSALPDPGFQKITLSSSSEEYQKVWNLFNRTLPFYFVQKIERVQNLALWEVYQWQKGQMQKQNGGKAVDERQLFHGTSAIFVDAICQQNFDWRVCGVHGTSYGKGSYFARDAAYSHHYSKSDTQTHTMFLARVLVGEFVRGNASFVRPPAKEGWSNAFYDSCVNSVSDPSIFVIFEKHQVYPEYVIQYTTSSKPSVTPSILLALGSLFSSRQ [PARP12] | 1.19 | 1.46 | -0.0418 | 49.2 °C | 48.1 °C | -0.201 |
